Measurements reported in IntAct's records for PubMed 24290141.

B1: Autophagy-related protein 13 (Homo sapiens), O75143 (parent)
chain: METDLNSQDRKDLDKFIKFFALKTVQVIVQARLGEKICTRSSSSPTGSDWFNLAIKDIPEVTHEAKKALAGQLPAVGRSMCVEISLKTSEGDSMELEIWCLEMNEKCDKEIKVSYTVYNRLSLLLKSLLAITRVTPAYRLSRKQGHEYVILYRIYFGEVQLSGLGEGFQTVRVGTVGTPVGTITLSCAYRINLAFMSTRQFERTPPIMGIIIDHFVDRPYPSSSPMHPCNYRTAGEDTGVIYPSVEDSQEVCTTSFSTSPPSQLSSSRLSYQPAALGVGSADLAYPVVFAAGLNATHPHQLMVPGKEGGVPLAPNQPVHGTQADQERLATCTPSDRTHCAATPSSSEDTETVSNSSEGRASPHDVLETIFVRKVGAFVNKPINQVTLTSLDIPFAMFAPKNLELEDTDPMVNPPDSPETESPLQGSLHSDGSSGGSSGNTHDDFVMIDFKPAFSKDDILPMDLGTFYREFQNPPQLSSLSIDIGAQSMAEDLDSLPEKLAVHEKNVREFDAFVETLQ

Variants of: B1
Details: with MAP1LC3A

Effect of a mutation on the interaction, decreasing interaction strength:
D442A
F444A
V445A
D443A
I447A
M446A
